Experimental data reported in patent US12269859B2, “Synthetic immune receptors and methods of use thereof” (Angeles Therapeutics, Inc., priority 2016, dated 2025).

Tested on: target antigen-expressing cell line
Assay: Jurkat NFAT-GFP assay, coculture with target cell lines expressing the respective target antigen (summary Table 10A)
Type: cell-based, human
Set-up: key: The signs +/−, +, 2+ etc. after the name of the cell lines indicate the relative degree of positivity on the Jurkat-NFAT-GFP assay as measured by the % GFP positive cells; +: relative degree of positivity on the Jurkat-NFAT-GFP assay as measured by the % GFP positive cells; 2+: relative degree of positivity on the Jurkat-NFAT-GFP assay as measured by the % GFP positive cells
Procedure, shortened: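 Readout is % GFP+ cells by FACS, graded +/− to 2+ relative to parental reporter cells. Jurkat-NFAT-GFP cells stably transduced with SIR constructs (puromycin-selected) were mixed with target-antigen-expressing cell lines at roughly 1:2 effector:target and cocultured ~4–18 h.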

B1: 080816-G03 (protein)
chain: MALPVTALLLPLALLLHAARPLEGKPIPNPLLGLDSTGSGEDLKNVFPPEVAVFEPSKAEIAHTQKATLVCLATGFYPDHVELSWWVNGKEVHSGVCTDPQPLKEQPALNDSRYCLSSRLRVSATFWQNPRNHFRCQVQFYGLSENDEWTQDRAKPVTQIVSAEAWGRADCGITSASYHQGVLSATILYEILLGKATLYAVLVSALVLMAMVKRKDSRGRAKRSGSGATNFSLLKQAGDVEENPGPTSTMALPVTALLLPLALLLHAARPDIVMTQSQKFMSTSVGDRVSIICKASQNVGTFVAWYQQKPGQSPKLLVYSASNRYTGVPDRFTGSGSGTDFTLTINNMQSEDLADYFCRQYSSYPYTFGGGTKLEIKGGGGSGGGGSGGGGSEVQLQQSGPELVKPGASMKISCKASGYSFSAYTMNWVKQSHGKNLEWIGLINPYNGGTNYNQEFEGKATLTVNKSSNTAFMELLSLTSDDSAVYYCARRDWDYFDYWGQGTTLTVSSTREQKLISEEDLGSGTPFPSLAPPIMLLVDGKQQMVVVCLVLDVAPPGLDSPIWFSAGNGSALDAFTYGPSPATDGTWTNLAHLSLPSEELASWEPLVCHTGPGAEGHSRSTQPMHLSGEASTARTCPQEPLRGTPGGALWLGVLRLLLFKLLLFDLLLTCSCLCDPAGPLPSPATTTRLRALGSHRLHPATETGGREATSSPRPQPRDRRWGDTPPGRKPGSPVRAKRSGSGVKQTLNFDLLKLAGDVESNPGPSRSRGHMTEYKPTVRLATRDDVPRAVRTLAAAFADYPATRHTVDPDRHIERVTELQELFLTRVGLDIGKVWVADDGAAVAVWTTPESVEAGAVFAEIGPRMAELSGSRLAAQQQMEGLLAPHRPKEPAWFLATVGVSPDHQGKGLGSAVVLPGVEAAERAGVPAFLETSAPRNLPFYERLGFTVTADVEVPEGPRTWCMTRKPGA
modifications: Polynucleotide encoding a Synthetic Immune Receptor (SIR)
NFAT-GFP ASSAY Positive Cell lines (coculture with TT cells): TT (+/−)

B2: 102116-A05 (protein)
chain: MRLPAQLLGLLMLWVSGSSGDVVMTQSPLSLPVTPGAPASISCRSSQSIVHSNGNTYLEWYLQKPGQSPKLLIYKVSNRFSGVPDRFSGSGSGTDFTLRISRVEAEDVGIYYCFQGSHVPPTFGPGTKLEIKLEEQKLISEEDLGSGEDLKNVFPPEVAVFEPSKAEIAHTQKATLVCLATGFYPDHVELSWWVNGKEVHSGVCTDPQPLKEQPALNDSRYCLSSRLRVSATFWQNPRNHFRCQVQFYGLSENDEWTQDRAKPVTQIVSAEAWGRADCGITSASYHQGVLSATILYEILLGKATLYAVLVSALVLMAMVKRKDSRGRAKRSGSGATNFSLLKQAGDVEENPGPTSMDWIWRILFLVGAATGAHSFEEVQLVESGGGLVQPGGSLRLSCSASGFTFSSFGMHWVRQAPGKGLEWVAYISSGSSTIYYGDTVKGRFTISRDNAKNSLFLQMSSLRAEDTAVYYCAREGGYYYGRSYYTMDYWGQGTTVTVSTREQKLISEEDLGSGIQNPDPAVYQLRDSKSSDKSVCLFTDFDSQTNVSQSKDSDVYITDKCVLDMRSMDFKSNSAVAWSNKSDFACANAFNNSIIPEDTFFPSSDVPCDVKLVEKSFETDTNLNFQNLSVIGFRILLLKVAGFNLLMTLRLWSSRAKRSGSGVKQTLNFDLLKLAGDVESNPGPSRGHMTEYKPTVRLATRDDVPRAVRTLAAAFADYPATRHTVDPDRHIERVTELQELFLTRVGLDIGKVWVADDGAAVAVWTTPESVEAGAVFAEIGPRMAELSGSRLAAQQQMEGLLAPHRPKEPAWFLATVGVSPDHQGKGLGSAVVLPGVEAAERAGVPAFLETSAPRNLPFYERLGFTVTADVEVPEGPRTWCMTRKPGA
modifications: Synthetic Immune Receptor (SIR)
NFAT-GFP ASSAY Positive Cell lines: RAJI (SIR-expressing Jurkat-NFAT-GFP cells cocultured with RAJI, relative % GFP positive cells): RAJI (+/−), U266
NFAT-GFP ASSAY Positive Cell lines: U266 (SIR-expressing Jurkat-NFAT-GFP cells cocultured with U266, relative % GFP positive cells): (+/−)

B3: 112916-A01 (protein)
chain: MALPVTALLLPLALLLHAARPDIVMTQTPLSLPVTPGEPASISCRSSRSLLDSDDGNTYLDWYLQKPGQSPQLLIYTLSYRASGVPDRFSGSGSGTDFTLKISRVEAEDVGVYYCMQRVEFPITFGQGTRLEIKRLEGKPIPNPLLGLDSTGSGEDLKNVFPPEVAVFEPSKAEIAHTQKATLVCLATGFYPDHVELSWWVNGKEVHSGVCTDPQPLKEQPALNDSRYCLSSRLRVSATFWQNPRNHFRCQVQFYGLSENDEWTQDRAKPVTQIVSAEAWGRADCGITSASYHQGVLSATILYEILLGKATLYAVLVSALVLMAMVKRKDSRGRAKRSGSGATNFSLLKQAGDVEENPGPTSMDWIWRILFLVGAATGAHSFEQVQLVESGGGVVQPGRSLRLSCAASGFIFSRYGMHWVRQAPGKGLKWVAVIWYDGSNKLYADSVKGRFTISRDNSKNTLYLQMNSLRAEDTAVYYCARDYYDNSRHHWGFDYWGQGTLVTVSSTREQKLISEEDGSGIQNPDPAVYQLRDSKSSDKSVCLFTDFDSQTNVSQSKDSDVYITDKCVLDMRSMDFKSNSAVAWSNKSDFACANAFNNSIIPEDTFFPSSDVPCDVKLVEKSFETDTNLNFQNLSVIGFRILLLKVAGFNLLMTLRLWSSRAKRSGSGVKQTLNFDLLKLAGDVESNPGPSRGHMTEYKPTVRLATRDDVPRAVRTLAAAFADYPATRHTVDPDRHIERVTELQELFLTRVGLDIGKVWVADDGAAVAVWTTPESVEAGAVFAEIGPRMAELSGSRLAAQQQMEGLLAPHRPKEPAWFLATVGVSPDHQGKGLGSAVVLPGVEAAERAGVPAFLETSAPRNLPFYERLGFTVTADVEVPEGPRTWCMTRKPGA
modifications: Polynucleotide encoding a Synthetic Immune Receptor (SIR)
NFAT-GFP ASSAY Positive Cell lines (coculture with SKOV3 cells): SKOV3 (+)

B4: 022817-U05 (protein)
chain: MALPVTALLLPLALLLHAARPDIQMNQSPSSLSASLGDTITITCHASQNINVWLSWYQQKPGNIPKLLIYKASNLHTGVPSRFSGSGSGTGFTITISSLQPEDIATYYCQQGQSYPWTFGGGTKLEIKRLEGKPIPNPLLGLDSTGSGEDLKNVFPPEVAVFEPSKAEIAHTQKATLVCLATGFYPDHVELSWWVNGKEVHSGVCTDPQPLKEQPALNDSRYCLSSRLRVSATFWQNPRNHFRCQVQFYGLSENDEWTQDRAKPVTQIVSAEAWGRADCGITSASYHQGVLSATILYEILLGKATLYAVLVSALVLMAMVKRKDSRGRAKRSGSGATNFSLLKQAGDVEENPGPTSMDWIWRILFLVGAATGAHSFEEVQLQQSGPELVKPGASVKISCKASGYSFTGYFMNWVKQSHGKSLEYIGRFNPYNGETLYNQKFKGKATLTVDKSSSTVHMELLSVTSEDSAVYYCGRSGNDDAMDYWGQGTSVTVSSATREQKLISEEDGSGIQNPDPAVYQLRDSKSSDKSVCLFTDFDSQTNVSQSKDSDVYITDKCVLDMRSMDFKSNSAVAWSNKSDFACANAFNNSIIPEDTFFPSSDVPCDVKLVEKSFETDTNLNFQNLSVIGFRILLLKVAGFNLLMTLRLWSSRAKRSGSGVKQTLNFDLLKLAGDVESNPGPSRGHMTEYKPTVRLATRDDVPRAVRTLAAAFADYPATRHTVDPDRHIERVTELQELFLTRVGLDIGKVWVADDGAAVAVWTTPESVEAGAVFAEIGPRMAELSGSRLAAQQQMEGLLAPHRPKEPAWFLATVGVSPDHQGKGLGSAVVLPGVEAAERAGVPAFLETSAPRNLPFYERLGFTVTADVEVPEGPRTWCMTRKPGA
modifications: Polynucleotide encoding a Synthetic Immune Receptor (SIR)
NFAT-GFP ASSAY Positive Cell lines (coculture with Jurkats-TCRgd-SIR cells): Jurkats-TCRgd-SIR

B5: 101817-E05 (protein)
chain: MALPVTALLLPLALLLHAARPQSVVTQPPSVSAAPGQKVTISCSGSSSNIGNNYVSWYQQLPGTAPKLLIYDNNKRPSGIPDRFSASKSGTSATLGITGLQTRDEADYYCGTWDSSLSAWVFGGGTKLTVLGLEIQNPDPAVYQLRDSKSSDKSVCLFTDFDSQTNVSQSKDSDVYITDKCVLDMRSMDFKSNSAVAWSNKSDFACANAFNNSIIPEDTFFPSSDVPCDVKLVEKSFETDTNLNFQNLSVIGFRILLLKVAGFNLLMTLRLWSSRAKRSGSGVKQTLNFDLLKLAGDVESNPGPTSMDWIWRILFLVGAATGAHSFEQVQLVQSGAEVKKPGSSVKVSCKASGDTFSSYYISWVRQAPGQGLEWMGRIIPILGIANYAQKYQGRVTLSADKSTSTSYMELNSLSSEDTAVYYCALDWSYSIDYWGQGTLVTVSSTREDLKNVFPPEVAVFEPSKAEIAHTQKATLVCLATGFYPDHVELSWWVNGKEVHSGVCTDPQPLKEQPALNDSRYCLSSRLRVSATFWQNPRNHFRCQVQFYGLSENDEWTQDRAKPVTQIVSAEAWGRADCGITSASYHQGVLSATILYEILLGKATLYAVLVSALVLMAMVKRKDSRGRAKRSGSGATNFSLLKQAGDVEENPGPSRGHMTEYKPTVRLATRDDVPRAVRTLAAAFADYPATRHTVDPDRHIERVTELQELFLTRVGLDIGKVWVADDGAAVAVWTTPESVEAGAVFAEIGPRMAELSGSRLAAQQQMEGLLAPHRPKEPAWFLATVGVSPDHQGKGLGSAVVLPGVEAAERAGVPAFLETSAPRNLPFYERLGFTVTADVEVPEGPRTWCMTRKPGA
NFAT-GFP ASSAY Positive Cell lines (coculture with U266 cells): U266(+/−)
